Legend:
[1] = target: T1, human PD-1 (soluble PD-1 protein, R&D Systems) (human, UniProt Q15116 25-170, limits assumed); test: BLI (ForteBio), mAb on AHC biosensor, PD-1 as analyte
T1 construct: the kinetics paragraphs say only 'PD-1' / 'antigen'; also called hPD-1; soluble PD-1 immunogen
Protocol: (§1) For BLI, antibodies were loaded onto an Anti-Human IgG Fc (AHC) biosensor using the Octet Red96 system (ForteBio). Loaded biosensors were dipped into antigen dilutions beginning at 300 nM, with 6 serial dilutions at 1:3. Kinetic analysis was performed using a 1:1 binding model and global fitting.

[2] = target: T1, human PD-1 (soluble PD-1 protein, R&D …); test: BLI, mAb on AHC biosensor, PD-1 as analyte
Protocol: The binding specificity and affinity of each full-length antibody towards PD-1 were determined using BLI and/or SPR. […] Anti-cyno PD-1 affinity was measured using BLI.
as §1

[3] = target: PD-1 expressed on cells (human, UniProt Q15116 25-288); test: cell-based or functional assay
PD-1 expressed on cells, sequence (Q15116 25-288 limits assumed): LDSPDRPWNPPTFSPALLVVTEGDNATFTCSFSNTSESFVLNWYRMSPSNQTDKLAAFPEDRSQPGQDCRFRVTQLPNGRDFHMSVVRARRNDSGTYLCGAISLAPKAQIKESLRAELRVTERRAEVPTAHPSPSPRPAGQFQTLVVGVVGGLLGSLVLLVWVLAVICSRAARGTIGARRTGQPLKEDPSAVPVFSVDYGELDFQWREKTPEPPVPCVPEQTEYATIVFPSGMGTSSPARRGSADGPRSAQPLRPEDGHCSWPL

T1 sequence (Q15116 25-170 limits assumed): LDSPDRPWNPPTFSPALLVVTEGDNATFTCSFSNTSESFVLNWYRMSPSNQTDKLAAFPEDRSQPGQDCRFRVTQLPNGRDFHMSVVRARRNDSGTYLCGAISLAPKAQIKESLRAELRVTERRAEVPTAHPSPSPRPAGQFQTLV

Binder | Kd [1] | koff [1] | kon [1] | Kd [2] | PD-1/PD-L1 blockage (IC50, µg/ml) [3]
A13 (antibody, V domains shown, Tested as full-length mAb expressed in CHO cells; also called antibody A13; L13H13) VH: QVQLVQSGAEVKKPGASVKVSCKASGYTFTTYGISWVRQAPGQGLEWMGWISAHNGNTNYAQKFQGRVTMTTDTSTSTAYMELRSLRSDDTAVYYCVRDGAVADYYYGMDVWGQGTTVTVSS VL: not shown | 86.7 nM | 0.00294 s⁻¹ | 33900 M⁻¹ s⁻¹ | 86.7 nM | –
A15 (antibody, V domains shown, Tested as full-length mAb expressed in CHO cells; also called antibody 15; L15H15) VH: QVQLQESGPGLVKPSETLSLTCTVSGGSISSYYWSWIRQPPGKGLEWIGYIYYSGSTNYNPSLKSRVTISEDTSKNQFSLKLSSVTAADTAVYYCARDEGATFFDYWGQGTLVTVSS VL: not shown | 8.32 nM | 0.00195 s⁻¹ | 235000 M⁻¹ s⁻¹ | 8.3 nM | –
A18 (antibody, V domains shown, Tested as full-length mAb expressed in CHO cells; also called antibody 18; L18H18) VH: QVQLVQSGTEVKKPGASVKVSCQASGYTFTSYDISWVRRAPGQGLEWMGWISAYNGNTNYAQKLQGRVTLTTDTSTSTAYMELRSLRSDDTAVYYCARRYYDILTEGGYYYVLDVWGQGTTVTVSS VL: AIRMTQSPSSFSASTGDRVTITCRASQGISSYLAWYQQKPGKAPTLLIYAASTLQSGVPSRFSGSGSGTDFTLTISCLQSEDFATYYCQQYYSDPPTFGQGTKVEIK | 18.4 nM | 0.00228 s⁻¹ | 124000 M⁻¹ s⁻¹ | 18.4 nM | –
A12 (antibody, V domains shown, Tested as full-length mAb expressed in CHO cells; also called antibody A12; L12H12) VH: QVQLVESGGGVVQPGRSLRLSCAASGFTFSSYGMHWVRQAPGKGLEWVAVIWYDGSNKYYADSVKGRFTISRDNSKNTLYLQMNSLRAEDSAVYYCVCNPFDYWGQGTLVTVSS VL: DIQMTQSPSSLSASVGDRVTVTCRSSQGIAHYLAWYQQKPGKVPKVLLYAASTLQSGVPSRFSGSGSGTDFTLTISSLQPEDVATYYCQKYNSAPYTFGQGTKLEIK | 5.05 nM | 0.000516 s⁻¹ | 102000 M⁻¹ s⁻¹ | 5.1 nM | 3.16 µg/mL
A16 (antibody, V domains shown, Tested as full-length mAb expressed in CHO cells; also called antibody 16; L16H16) VH: QVQLVESGGGVVQPGRSLTLSCAASGFTFSNYGMYWVRQAPGKGLEWVAVIWYDGSNKYYADSVKGRFTISRDNSKNTLYLQMNSLRAEDTAVYYCAGGGSYSGDYWGQGTLVTVSS VL: DIQMTQSPSSLSASVGDRVTITCRTSQDIRNDLGWYQQKPGKAPKRLIYAVSSLQSGVPSRFSGSGSGTEFTFTISSLQPEDFATYYCLQYNTYPFTFGPGTTVDIK | 86 nM | 0.00655 s⁻¹ | 76100 M⁻¹ s⁻¹ | 86 nM | 0.556 µg/mL
A17 (antibody, V domains shown, Tested as full-length mAb expressed in CHO cells; also called antibody 17; L17H17) VH: QVQLVESGGGVVQPGRSLRLSCAASGFTFSSYGMHWVRQAPGKGLEWVAVIWYDGSNQYYADSVKGRFTISRDNSKNTLFLQMNSLRAEDTAVYFCAGGGNYYGDFWGQGTLVTVSS VL: DIQMTQSPSSLSASVGDRVTITCRASQGIRNDLGWYQQKPGKAPKRLIYAASSLQSGVPSRFSGSGSGTEFTLTISSLQPEDFATYYCLQYISYPWTFGQGTKVEIK | 326 nM | 0.0079 s⁻¹ | 24200 M⁻¹ s⁻¹ | 326 nM | 0.533 µg/mL

Now from value to binder:

Kd [1] | koff [1] | kon [1] | Kd [2] | PD-1/PD-L1 blockage (IC50, µg/ml) [3] | Binder
792 nM | 0.0579 s⁻¹ | 73100 M⁻¹ s⁻¹ | 792 nM | – | A25 (antibody, V domains shown, Tested as full-length mAb expressed in CHO cells; also called antibody 25; L25H25) VH: QVQLVESGGGVVQPGRSLRLSCAASGFTFSSYGMHWVRQAPGKGLEWVGVIWYDGSIKYYADSVKGRFTISRDNSMNTLNLQMNSLRAEDTAVYYCAGDILTGSFDYWGQGTLVTVSS VL: EIVLTQSPATLSLSPGERATLSCRASQSVSSYLAWYQQKPGQAPRLLIYDASNRATGIPARFSGSGSGTDFTLTISSLEPEDFAVYYCQQRNNWPYTFGQGTKLEIK
148 nM | 0.00191 s⁻¹ | 13000 M⁻¹ s⁻¹ | 148 nM | – | A20 (antibody, V domains shown, Tested as full-length mAb expressed in CHO cells; also called antibody 20; L20H20) VH: EVQLVESGGGLVQPGGSLRLSCAASGFTFSFYDMHWVRQAKGKGLEWVSAIGTAGDTYYPGSVKGRFTISRENAKNSLYLQMNSLRAGDTAVYYCARGYCSTTNCFADYFDYWGQGTLVTVSS VL: DIQLTQSPSFLSASVGDRVTITCRASQGISNYLAWYQQKPGKAPKLLIYAASTLQSGVPSRFSGSGSGTEFTLTISSLQPEDFATYYCHQLNSFPLTFGGGTKVEIK
57.1 nM | 0.00107 s⁻¹ | 18700 M⁻¹ s⁻¹ | 57.1 nM | > 3.16 µg/mL | A19 (antibody, V domains shown, Tested as full-length mAb expressed in CHO cells; also called antibody 19; L19H19) VH: QVQLVESGGGVVQPGRSLRLSCAASGFTFSNYGMYWVRQAPGKGLEWVAVIWYDGSNKYYADSVKGRFTISRDNSKNTLYLQMNSLRAEDTAVYYCAGGGDILTGDYWGQGTLVTVSS VL: DIQMTQSPSSLSASVGDRVTITCRASQGIRNDLGWYQQKPGKAPKRLIYAASSLQSGVPSRFSGSGSGTEFTLTISSLQPEDFATYYCLQYKSYLYTFGQGTKLEIK
13 nM | 0.00142 s⁻¹ | 110000 M⁻¹ s⁻¹ | 13 nM | – | A21 (antibody, V domains shown, Tested as full-length mAb expressed in CHO cells; also called antibody 21; L21H21) VH: QVQLVQSGAEVKKPGASVKVSCKASGYTFTSYYMHWVRQAPGQGLEWMGIINPSGSSTSYAQKFQGRVTMTRDTSTSTVYMELSSLRSEDTAVYYCARYGVWGSYRSLDYWGQGTLVTVSS VL: AIQMTQSPSSLSASVGDRVTITCRASQGIRNELGWYQQKPGKAPKLLICAASSLQSGVPSRFSGSGSGTDFTLTISSLQPEDFATYYCLQDYIYPYTFGQGTKLEIK
83.8 nM | 0.00184 s⁻¹ | 22000 M⁻¹ s⁻¹ | 83.8 nM | 0.116 µg/mL | A23 (antibody, V domains shown, Tested as full-length mAb expressed in CHO cells; also called antibody 23; L23H23) VH: QVQLVESGGGVVQPGRSLRLSCVASGFTFSNYGMHWVRQAPGKGLEWVAIIWYDGSIKYYADSVKGRFTISRDNSKNTLHLQMNSLRAEDTAVYYCARWGIYFDYWGQGTLVTVSS VL: EIVMTQSPATLSVSPGERATLSCRASQSVSSNLAWYQQKPGQAPRLLIYGASTRATGIPARFSGSGSGTEFTLTISSLQSEDFAVYYCQQYHNWPLTFGGGTKVEIK
8.5 nM | 0.00185 s⁻¹ | 217000 M⁻¹ s⁻¹ | 8.5 nM | 0.266 µg/mL | A24 (antibody, V domains shown, Tested as full-length mAb expressed in CHO cells; also called antibody 24; L24H24) VH: QVQLVESGGGVVQPGRSLRLSCAASGFTFSDSGMHWVRQAPGKGLEWVAVIWYDGSKKYYVDSVKGRFTISRDNSKNTLYLQMNSLRAEDTAVYYCATEGDYWGQGTLVTVSS VL: EIVMTQSPATLSVFPGERATLSCRASQSVSSNLGWYQQKPGQAPRLLMYGASTRVTGIPARFSGSGSGTEFTLTISSLQSEDFAVYYCQQYNTWPRTFGQGTKVEIK
5.98 nM | 0.00104 s⁻¹ | 174000 M⁻¹ s⁻¹ | 6 nM | 0.641 µg/mL | A26 (antibody, V domains shown, Tested as full-length mAb expressed in CHO cells; also called antibody 26; L26H26) VH: QVQLVESGGGVVQPGRSLRLSCAASGFTFSDYGMHWVRQAPGKGLEWVAVIWYDGSNKYYTDSVKGRFTISRDNSKNTLYLQMSSLRAEDAAVYYCAVNPFDYWGQGTLVTVSS VL: DIQMTQSPSSLSASVGDRVTISCRASQGISNYLAWYQQKPGKVPKVLIYGASTLQSGVPSRFSGSGSGTDFTLTISSLQPEDVATYYCQKYNSAPYTFGQGTKLEIK
412 nM | 0.00667 s⁻¹ | 16200 M⁻¹ s⁻¹ | 412 nM | – | A22 (antibody, V domains shown, Tested as full-length mAb expressed in CHO cells; also called antibody 22; L22H22) VH: QVQLVESGGGVVQPGRSLRLSCAASGFTFSNYGMHWVRQAPGKGLEWVAVIWYDGSNKYYADSVKGRFTISRDNSKNTLYLQMNSLRAEDTAVYYCARLYYYDSSGYYPDAFDIWGQGTMVTVSS VL: DIQMTQSPSSLSASVGDRVTITCRASQGIRNDLGWYQQKPGKAPKRLIYAASSLQSGVPSRFSGSGSGTEFTLTISSLQPEDFATYYCLQHNSYPFTFGPGTKVEIK

From patent US20220064302A1 (GIGAGEN, published 2022)
